Assay results reported in patent US20200199204A1 (UNITED STATES OF AMERICA AS REPRESENTED BY THE SECRETARY …, published 2020).

How the values were obtained:
Test in all cases: cell-based or functional assay
HIV-1 Env of CAP256.SU = HIV-1 Env of CAP256.SU (HIV-1)
HIV-1 Env of MB201 = HIV-1 Env of MB201 (HIV-1)
HIV-1 Env of DU172.17 = HIV-1 Env of DU172.17 (HIV-1)
HIV-1 Env of 6405.v4.c34 = HIV-1 Env of 6405.v4.c34 (HIV-1)
HIV-1 Env of WITO.33 = HIV-1 Env of WITO.33 (HIV-1)
HIV-1 Env of Q769.d22 = HIV-1 Env of Q769.d22 (HIV-1)
HIV-1 Env of ZM233.6 = HIV-1 Env of ZM233.6 (HIV-1)
HIV-1 Env of TRJO.58 = HIV-1 Env of TRJO.58 (HIV-1)
HIV-1 Env of RHPA.7 = HIV-1 Env of RHPA.7 (HIV-1)
HIV-1 Env of MB539.2B7 = HIV-1 Env of MB539.2B7 (HIV-1)
HIV-1 Env of Q842.d12 = HIV-1 Env of Q842.d12 (HIV-1)
HIV-1 Env of ZM214.15 = HIV-1 Env of ZM214.15 (HIV-1)
Env of SIVmac251.30 = Env of SIVmac251.30 (SIV (printed as nonHIV))
HIV-1 Env of CAP45.G3 = HIV-1 Env of CAP45.G3 (HIV-1)
HIV-1 Env of Q23.17 = HIV-1 Env of Q23.17 (HIV-1)
HIV-1 Env of REJO.67 = HIV-1 Env of REJO.67 (HIV-1)
HIV-1 Env of ZM135.10a = HIV-1 Env of ZM135.10a (HIV-1)
HIV-1 Env of AC10.29 = HIV-1 Env of AC10.29 (HIV-1)
HIV-1 Env of QH0692.42 = HIV-1 Env of QH0692.42 (HIV-1)
HIV-1 Env of ZM53.12 = HIV-1 Env of ZM53.12 (HIV-1)
HIV-1 Env of 6535.3 = HIV-1 Env of 6535.3 (HIV-1)
HIV-1 Env of CNE3 = HIV-1 Env of CNE3 (HIV-1)
HIV-1 Env of CM244.ec1 = HIV-1 Env of CM244.ec1 (HIV-1)
HIV-1 Env of CAP256.PI = HIV-1 Env of CAP256.PI (HIV-1)
HIV-1 Env of ZM197.7 = HIV-1 Env of ZM197.7 (HIV-1)
HIV-1 Env of Q461.e2 = HIV-1 Env of Q461.e2 (HIV-1)
HIV-1 Env of 191821.E6.1 = HIV-1 Env of 191821.E6.1 (HIV-1)
HIV-1 Env of TRO.11 = HIV-1 Env of TRO.11 (HIV-1)
HIV-1 Env of TH976.17 = HIV-1 Env of TH976.17 (HIV-1)
HIV-1 Env of PVO.04 = HIV-1 Env of PVO.04 (HIV-1)
HIV-1 Env of THRO.18 = HIV-1 Env of THRO.18 (HIV-1)
HIV-1 Env of RW020.2 = HIV-1 Env of RW020.2 (HIV-1)
HIV-1 Env of KER2008.12 = HIV-1 Env of KER2008.12 (HIV-1)
HIV-1 Env of UG037.8 = HIV-1 Env of UG037.8 (HIV-1)
HIV-1 Env of Q259.d2.17 = HIV-1 Env of Q259.d2.17 (HIV-1)
HIV-1 Env of KER2018.11 = HIV-1 Env of KER2018.11 (HIV-1)
HIV-1 Env of C1080.c3 = HIV-1 Env of C1080.c3 (HIV-1)
HIV-1 Env of ZM109.4 = HIV-1 Env of ZM109.4 (HIV-1)
HIV-1 Env of 0260.v5.c36 = HIV-1 Env of 0260.v5.c36 (HIV-1)
HIV-1 Env of CAP244.D3 = HIV-1 Env of CAP244.D3 (HIV-1)
HIV-1 Env of CAP210.E8 = HIV-1 Env of CAP210.E8 (HIV-1)
HIV-1 Env of Q168.a2 = HIV-1 Env of Q168.a2 (HIV-1)
HIV-1 Env of DU156.12 = HIV-1 Env of DU156.12 (HIV-1)
HIV-1 Env of SC422.8 = HIV-1 Env of SC422.8 (HIV-1)
HIV-1 Env of CAAN.A2 = HIV-1 Env of CAAN.A2 (HIV-1)
HIV-1 Env of BG505.w6m = HIV-1 Env of BG505.w6m (HIV-1)
HIV-1 Env of ZM249.1 = HIV-1 Env of ZM249.1 (HIV-1)
HIV-1 Env of DU422.01 = HIV-1 Env of DU422.01 (HIV-1)
HIV-1 Env of 96ZM651.02 = HIV-1 Env of 96ZM651.02 (HIV-1)
HIV-1 Env of 3016.V5.c36 = HIV-1 Env of 3016.V5.c36 (HIV-1)

Measured: neutralization IC50

B1: CAP256-VRC26.01 (antibody, V domains shown)
VH: EVQVVESGGGVVQPGRSLRLSCTASGFTFSNFAMGWVRQAPGKGLEWVAFISSDGSNKNYGDSVKGRFTISRDNSKNTVFLQMNSLRVEDTALYYCAKDVGDYKSDEWGTEYYDISISYPIQDPRAMVGAFDLWGQGTMVTVSP
VL: QSVLTQPPSVSAAPGQKVTISCSGSSSTIGNNYVSWYRLLPGTAPKLLIYKNDNRPSGIPDRFSGSKSGTSATLGISGLQTGDEADYYCGTWDTSLSGGGVFGTGTKVTVLG
9.63 µg/mL: HIV-1 Env of 3016.V5.c36
0.103 µg/mL: HIV-1 Env of ZM53.12
30.9 µg/mL: HIV-1 Env of KER2008.12
3.32 µg/mL: HIV-1 Env of CM244.ec1
0.14 µg/mL: HIV-1 Env of CAP256.SU
0.217 µg/mL: HIV-1 Env of CAP210.E8
8.1 µg/mL: HIV-1 Env of KER2018.11
10.4 µg/mL: HIV-1 Env of ZM197.7
> 50 µg/mL: all other assays above

B2: CAP256-VRC26.06 (antibody, V domains shown)
VH: EVQLIESGGGVVQPGRSLRLSCGASGFSFNNYGMHWVRQAPGKGLEWVAGISFAGIKKYYGTSVKGRFTISRDNSKNNFYLQMNSLRVEDTALYYCARDLRELECEEWTLYNYYDFGSRGPCVDPRGVAGSFDVWGQGTMVTVSS
VL: QSVLTQPPSVSAAPGQKVTISCSGSTSKIGQNSVSWYQQLPGTAPKLLIYENDRRPSGTPDRFSGSKSGTSATLAITGLQTGDEAEYYCETWDGSGGVFGTGTKVTVLG
0.03 µg/mL: HIV-1 Env of CAP256.PI
0.729 µg/mL: HIV-1 Env of CAP210.E8
0.222 µg/mL: HIV-1 Env of ZM53.12
4.25 µg/mL: HIV-1 Env of THRO.18
0.308 µg/mL: HIV-1 Env of PVO.04
0.022 µg/mL: HIV-1 Env of AC10.29
0.003 µg/mL: HIV-1 Env of WITO.33
0.178 µg/mL: HIV-1 Env of SC422.8
0.055 µg/mL: HIV-1 Env of CAP256.SU
> 50 µg/mL: all other assays above
